From paper PMC10881513 (Nature Communications, 2024)

Molecular target: T1, ASFV RNA polymerase subunit vRPB1 (African swine fever virus, strain BA71V, UniProt P42486 1-1450)
T1 sequence: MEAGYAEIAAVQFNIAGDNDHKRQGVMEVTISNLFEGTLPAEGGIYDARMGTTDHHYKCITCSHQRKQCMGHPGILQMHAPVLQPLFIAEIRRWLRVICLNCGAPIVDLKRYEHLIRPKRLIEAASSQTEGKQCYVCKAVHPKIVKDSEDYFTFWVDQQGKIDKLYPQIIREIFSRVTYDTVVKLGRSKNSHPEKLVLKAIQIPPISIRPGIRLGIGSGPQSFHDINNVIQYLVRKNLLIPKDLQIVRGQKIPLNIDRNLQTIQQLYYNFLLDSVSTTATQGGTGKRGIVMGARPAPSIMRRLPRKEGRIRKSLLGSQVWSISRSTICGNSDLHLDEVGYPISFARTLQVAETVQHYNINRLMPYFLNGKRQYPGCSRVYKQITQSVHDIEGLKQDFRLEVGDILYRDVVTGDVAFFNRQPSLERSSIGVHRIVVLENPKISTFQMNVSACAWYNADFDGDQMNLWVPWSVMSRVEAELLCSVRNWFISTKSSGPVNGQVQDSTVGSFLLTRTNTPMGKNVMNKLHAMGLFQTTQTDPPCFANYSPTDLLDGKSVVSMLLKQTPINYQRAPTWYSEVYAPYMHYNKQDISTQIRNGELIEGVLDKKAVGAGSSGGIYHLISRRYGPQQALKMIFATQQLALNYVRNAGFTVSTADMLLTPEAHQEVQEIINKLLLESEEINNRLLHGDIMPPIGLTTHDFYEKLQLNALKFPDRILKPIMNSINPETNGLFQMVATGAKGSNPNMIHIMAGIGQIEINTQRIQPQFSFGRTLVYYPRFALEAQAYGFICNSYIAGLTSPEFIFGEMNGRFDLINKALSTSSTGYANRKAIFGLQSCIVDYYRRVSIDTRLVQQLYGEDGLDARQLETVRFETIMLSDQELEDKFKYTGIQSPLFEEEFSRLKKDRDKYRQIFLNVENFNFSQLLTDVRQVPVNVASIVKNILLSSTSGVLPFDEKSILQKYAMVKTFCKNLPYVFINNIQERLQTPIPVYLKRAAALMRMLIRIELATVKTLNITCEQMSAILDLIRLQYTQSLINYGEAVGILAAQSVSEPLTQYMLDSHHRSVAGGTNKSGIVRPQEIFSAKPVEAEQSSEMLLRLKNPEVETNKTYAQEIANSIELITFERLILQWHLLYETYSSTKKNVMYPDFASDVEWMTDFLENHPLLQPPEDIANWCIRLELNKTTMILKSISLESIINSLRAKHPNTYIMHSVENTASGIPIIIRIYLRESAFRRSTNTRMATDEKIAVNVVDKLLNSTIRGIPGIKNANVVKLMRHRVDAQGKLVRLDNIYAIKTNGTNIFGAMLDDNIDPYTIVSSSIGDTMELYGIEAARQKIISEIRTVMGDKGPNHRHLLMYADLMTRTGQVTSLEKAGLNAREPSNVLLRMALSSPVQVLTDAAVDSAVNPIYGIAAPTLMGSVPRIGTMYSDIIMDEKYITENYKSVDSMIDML
Test: cryo-EM structure
Settings: both partners purified

B1: ASFV RNA polymerase subunit vRPB2, His-ZZ-tag cleaved with TEV (natural protein)
chain: MEPLRPQITYGPIETVDNEELTEADMLSFISAAVNSTGLIGYNIKSFDDLMDNGIPQIVKQMFNVDITYKDQRDHTEIDKLRESVQIQFNFTDVNIERPQHRNYSQGNKINLLPNKARLCGLSYSGPVNLAAEVILTAHYSNGRQEVKRASIPPFQVSTFPIMRGSNRCHTHHLSKTAKKEIGEDPNEPGGYFIARGGEWVVDLLENIRFNTLHIHYHTMQQGNNEIIRGEFISQPGGAFENSSQIIIRYMTTGAITIEINSTKFSKLRIPWYLIFRMFGMTGDDSIIEQVVFDLESNSPVNTFMIEILEKSIHVLDPIFQPVQHEPNREKIIQFLSEKVSKFVSNPSAYKSDENAVQYLNERQLTILDKILLPHMGQTADTRVRKLRFLGLLIHKILLVIMNVFPPTDRDSYRTKRVHGSGVSLAKAFKAIFNTSVIAPIINGFKELLKQTAFEELTQRNIIEAFSAALSKNTASDLNRSMEQSIISGNKTIMVRQRPIVNRVSTQSLERKNLLNTISALRTVNTHNTTNASKQTERADMMRRVHASYPGYICVAQSADTGEKVGMSKQLAITANVCTAGEVLSLKQRLLSDPAIQQLADVSNKDIVRKGLARVFINGEWIGCCTNAFELAQRYRMFRREGKIVHPHTTIYWDSMVDEVEFWLDVGRLTRPLLIVDNNIEKYNQACYKAAEARKKGDKDWEKHKIPFIQNTRFTSQMAKDILAGTLTLEDLVAQGICEFITPEEAENCLVAFSIIELRKHKHDVTRRFTHVDVPQAILGLAALVSPYANCTQPARVTYETNQGRQTGGWYCFSWPYRVDMNRFFQFYNEMPLVKTIAHNYVIPNGLNTIVAYMIYGGYNQEDSVIVSQSFIDRGGFAGTFYREEKVELESDIESFGKPDPLITKNLKPGANYEKLVDGFVPVGTVVKKGDIIIGKVAKIRGEKDELNKYIDRSVMYGFDEPAVVDAVMRPHGPNDEIFGLMRLRYERNLNIGDKMSSRSGNKGIAALALPTSDMPFTEDGLQPDLIVNPHSHPSRMTNGQMIETTVGLANALQGVVTDGTAFLPINVQLLSERLAQEGLRFNGCQKMFNGQTGEYFDAAIFIGPTYHQRLQKFVLDDRYAVASYGPTDALTGQPLDGKRSHGGLRLGEMEHWVLTAQGAMQTIIEKSHDDSDGCISYICRNCGEPAIYNASHPIYKCMNCDVQADIGMVDSRRSSIVFQHEMRAANVNITSVLSPRVFQPA
Q: Does B1 bind?
A: Result: binds
